One block for each molecule: values may come before it.
What was measured:
[1] = molecular target: Bcl-xL (Homo sapiens) (UniProt Q07817); experiment: ITC; conditions: cited from earlier work
[2] = molecular target: Mcl-1 (Homo sapiens) (UniProt Q07820); conditions: cited from earlier work
[3] = molecular target: human Mcl-1 ΔPESTΔTM (human); experiment: NMR titration; 15N SOFAST-HMQC of 15N-Mcl-1 (100 μM) with unlabeled BH3 peptide added (TCTPBH3 0-500 μM, up to 5 eq.; TCTPBH3D16I and MuleBH3 up to 3 eq.); 950 MHz, 308 K, 50 mM MES pH 6.5, 50 mM EPPS, 50 mM NaCl, 2 mM TCEP; KD and koff from TITAN 2D line shape analysis, two-state model
[4] = molecular target: human Mcl-1 ΔPESTΔTM (human); experiment: NMR competition (15N SOFAST-HMQC); 15N-Mcl-1 with an excess (5 eq. total) of an equimolar mix of TCTPBH3, TCTPBH3D16I and MuleBH3, 2 h at room temperature; populations from intensities of seven reporter residues; 950 MHz, 298 K, 50 mM MES pH 6.5, 50 mM EPPS, 50 mM NaCl, 2 mM TCEP
[5] = molecular target: human Mcl-1 ΔPESTΔTM (human); experiment: SEC + other: SAXS; equimolar mix of TCTP and Mcl-1 (500 μM each), 2 h incubation, Superdex 200 10/300 in line with SAXS; 50 mM CHES pH 9, 50 mM NaCl, 2 mM TCEP; 37 °C (308 K in the legend)

Sequence of UniProt Q07820 (Q07820 whole entry): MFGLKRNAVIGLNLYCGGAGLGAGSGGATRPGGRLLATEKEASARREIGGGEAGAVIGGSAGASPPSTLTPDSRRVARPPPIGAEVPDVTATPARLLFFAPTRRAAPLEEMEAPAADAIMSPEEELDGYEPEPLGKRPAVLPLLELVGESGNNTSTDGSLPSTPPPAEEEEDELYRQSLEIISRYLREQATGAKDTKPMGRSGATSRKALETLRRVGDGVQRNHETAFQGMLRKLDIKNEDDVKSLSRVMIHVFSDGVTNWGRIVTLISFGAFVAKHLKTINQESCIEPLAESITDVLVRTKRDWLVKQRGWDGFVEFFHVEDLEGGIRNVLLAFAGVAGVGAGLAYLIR
Sequence of UniProt Q07817 (Q07817 whole entry): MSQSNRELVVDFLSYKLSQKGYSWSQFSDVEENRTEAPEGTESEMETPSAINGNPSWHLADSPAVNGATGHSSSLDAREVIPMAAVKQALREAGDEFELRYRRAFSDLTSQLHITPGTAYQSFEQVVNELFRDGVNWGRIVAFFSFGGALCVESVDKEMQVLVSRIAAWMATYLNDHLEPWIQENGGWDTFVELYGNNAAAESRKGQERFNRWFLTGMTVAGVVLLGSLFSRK

Molecule: TCTP BH3 (from UniProt P13693)
Kd [1]: 12 µM

Molecule: Mule BH3 (from UniProt Q7Z6Z7)
Kd [2]: 0.029 µM

Kd [3]: 7.9 µM
koff [3]: 56 s⁻¹
fold weaker affinity than TCTPBH3D16I and MuleBH3 [4]: 10 fold
Molecule: DEMFSDIYKIREIADGLCLEVE [TCTP BH3-like peptide (TCTPBH3)]

stoichiometry N [5]: 1
B1: full-length human TCTP (FL-TCTP) (natural protein)
chain: MIIYRDLISHDEMFSDIYKIREIADGLCLEVEGKMVSRTEGNIDDSLIGGNASAEGPEGEGTESTVITGVDIVMNHHLQETSFTKEAYKKYIKDYMKSIKGKLEEQRPERVKPFMTGAAEQIKHILANFKNYQFFIGENMNPDGMVALLDYREDGVTPYMIFFKDGLEMEKC

relative population of Mcl-1 bound (in the mix of three peptides) [4]: 45%
Molecule: DEMFSIIYKIREIADGLCLEVE [TCTP BH3-like peptide D16I mutant (TCTPBH3D16I)]

— paper PMC10333598
